In assay [1] the target is human CD40 (hCD40), full length, on cells (human) (UniProt P25942). The assay can be described thus: cell-based or functional assay.
Assay [2] concerns the target cynoCD40-mFc (monkey (cyno)). The assay can be described thus: flow cytometry, blocking of cynoCD40-mFc (2 µg/mL) binding to CHO-K1-cynoCD40L cells.

pIC50: −log10 of the molar value.

Chain of human CD40 (hCD40), full length, on cells (human) (P25942 21-277 limits assumed): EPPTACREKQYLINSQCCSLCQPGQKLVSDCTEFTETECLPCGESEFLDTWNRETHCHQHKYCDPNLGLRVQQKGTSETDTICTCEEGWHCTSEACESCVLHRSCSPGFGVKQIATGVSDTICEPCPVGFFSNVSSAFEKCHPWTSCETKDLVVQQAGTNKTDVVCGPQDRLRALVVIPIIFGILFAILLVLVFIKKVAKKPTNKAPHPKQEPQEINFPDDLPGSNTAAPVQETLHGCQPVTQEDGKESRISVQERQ
Chain of cynoCD40-mFc (monkey (cyno)) (chain, as listed by the source limits assumed, form in doubt): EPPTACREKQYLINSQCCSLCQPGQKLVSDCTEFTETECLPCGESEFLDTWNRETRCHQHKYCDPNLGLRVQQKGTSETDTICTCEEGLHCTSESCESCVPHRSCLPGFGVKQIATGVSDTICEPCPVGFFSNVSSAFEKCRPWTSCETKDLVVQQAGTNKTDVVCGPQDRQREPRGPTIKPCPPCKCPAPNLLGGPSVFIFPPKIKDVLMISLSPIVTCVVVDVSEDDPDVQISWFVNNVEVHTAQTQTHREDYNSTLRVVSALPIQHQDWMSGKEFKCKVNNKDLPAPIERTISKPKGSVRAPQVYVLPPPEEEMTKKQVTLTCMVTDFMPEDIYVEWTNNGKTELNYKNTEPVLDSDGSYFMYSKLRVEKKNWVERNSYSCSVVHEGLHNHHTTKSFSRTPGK

For IgG4 isotype control antibody, in assay [1], the Inhibition, % of Ramos cell apoptosis at 0.064 ng/L (so in the source) is -12%; the Inhibition, % of Ramos cell apoptosis at 0.32 ng/L (so in the source) was -9%; the Inhibition, % of Ramos cell apoptosis at 1.6 ng/L (so in the source) was -10%; the Inhibition, % of Ramos cell apoptosis at 8 ng/L (so in the source) amounted to 0%. In assay [1], the Inhibition, % of Ramos cell apoptosis at 40 ng/L (so in the source) is -20%; the Inhibition, % of Ramos cell apoptosis at 200 ng/L (so in the source) is -6%; the Inhibition, % of Ramos cell apoptosis at 1000 ng/L (so in the source) was -3%.

As usually defined, the pIC50 is the negative decadic logarithm of the IC50, by convention in mol/L. Substance Iscalimab (CFZ533) (antibody) showed a pIC50 in assay [2] of 7.62.

These data come from patent US20240383994A1.
